Reference: IntAct's records for PubMed 25752543

B1: Neuropilin-2 (Homo sapiens), O60462 (parent)
chain: MDMFPLTWVFLALYFSRHQVRGQPDPPCGGRLNSKDAGYITSPGYPQDYPSHQNCEWIVYAPEPNQKIVLNFNPHFEIEKHDCKYDFIEIRDGDSESADLLGKHCGNIAPPTIISSGSMLYIKFTSDYARQGAGFSLRYEIFKTGSEDCSKNFTSPNGTIESPGFPEKYPHNLDCTFTILAKPKMEIILQFLIFDLEHDPLQVGEGDCKYDWLDIWDGIPHVGPLIGKYCGTKTPSELRSSTGILSLTFHTDMAVAKDGFSARYYLVHQEPLENFQCNVPLGMESGRIANEQISASSTYSDGRWTPQQSRLHGDDNGWTPNLDSNKEYLQVDLRFLTMLTAIATQGAISRETQNGYYVKSYKLEVSTNGEDWMVYRHGKNHKVFQANNDATEVVLNKLHAPLLTRFVRIRPQTWHSGIALRLELFGCRVTDAPCSNMLGMLSGLIADSQISASSTQEYLWSPSAARLVSSRSGWFPRIPQAQPGEEWLQVDLGTPKTVKGVIIQGARGGDSITAVEARAFVRKFKVSYSLNGKDWEYIQDPRTQQPKLFEGNMHYDTPDIRRFDPIPAQYVRVYPERWSPAGIGMRLEVLGCDWTDSKPTVETLGPTVKSEETTTPYPTEEEATECGENCSFEDDKDLQLPSGFNCNFDFLEEPCGWMYDHAKWLRTTWASSSSPNDRTFPDDRNFLRLQSDSQREGQYARLISPPVHLPRSPVCMEFQYQATGGRGVALQVVREASQESKLLWVIREDQGGEWKHGRIILPSYDMEYQIVFEGVIGKGRSGEIAIDDIRISTDVPLENCMEPISAFAGENFKVDIPEIHEREGYEDEIDDEYEVDWSNSSSATSGSGAPSTDKEKSWLYTLDPILITIIAMSSLGVLLGATCAGLLLYCTCSYSGLSSRSCTTLENYNFELYDGLKHKVKMNHQKCCSEA
partner: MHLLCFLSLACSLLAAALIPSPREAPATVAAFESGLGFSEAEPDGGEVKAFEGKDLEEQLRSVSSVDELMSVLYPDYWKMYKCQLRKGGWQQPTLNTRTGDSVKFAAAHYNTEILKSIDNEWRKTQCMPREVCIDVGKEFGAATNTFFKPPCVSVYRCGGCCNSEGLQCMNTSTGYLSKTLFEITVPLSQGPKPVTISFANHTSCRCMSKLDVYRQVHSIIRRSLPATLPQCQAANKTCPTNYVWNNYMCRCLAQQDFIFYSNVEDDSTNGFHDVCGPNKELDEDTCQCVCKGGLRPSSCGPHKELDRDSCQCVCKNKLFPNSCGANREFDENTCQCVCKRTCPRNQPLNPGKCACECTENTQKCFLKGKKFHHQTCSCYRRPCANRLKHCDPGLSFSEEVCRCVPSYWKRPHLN
B2: Vascular endothelial growth factor C (Mus musculus), P97953-1 (parent)
chain: B1 partner
partner: B1 chain

Variants of: B1
Details: with Vegfc

effect of a mutation on the interaction | Variant
disrupting interaction strength | T319R

Variants of: B2
Details: with nrp2_human NRP2, O60462

effect of a mutation on the interaction | Variant
decreasing interaction strength | MHLLCFLSLACSLLAAALIPSPREAPATVAAFESGLGFSEAEPDGGEVKAFEGKDLEEQLRSVSSVDELMSVLYPDYWKMYKCQLRKGGWQQPTLNTRTGDSVKFAAAHYNTEILKSIDNEWRKTQCMPREVCIDVGKEFGAATNTFFKPPCVSVYRCGGCCNSEGLQCMNTSTGYLSKTLFEITVPLSQGPKPVTISFANHTSCRCMSKLDVYRQVHSIIRESLPATLPQCQAANKTCPTNYVWNNYMCRCLAQQDFIFYSNVEDDSTNGFHDVCGPNKELDEDTCQCVCKGGLRPSSCGPHKELDRDSCQCVCKNKLFPNSCGANREFDENTCQCVCKRTCPRNQPLNPGKCACECTENTQKCFLKGKKFHHQTCSCYRRPCANRLKHCDPGLSFSEEVCRCVPSYWKRPHLN [R223E]
